Measured values taken from article doi:10.1101/2025.09.11.675134, “Biodistribution-Driven Discovery Identifies a Glycosidase-Cleavable Linker to Reprogram Radiotheranostics” (bioRxiv, 2025).
Read-outs that look alike come from different tables or passages of the source. Positions of bridges follow the written chain, without caps; N, C: chain ends. Non-standard residues stand in square brackets, D forms with d. Residues, ends and D or L forms follow the SMILES beside them. *: point of attachment. X1 = C[C@H](CCC(=O)*)[C@H]1CC[C@H]2[C@@H]3[C@H](O)C[C@@H]4C[C@@H](NC(=O)CNC(=O)CN5CCN(CC(=O)O)CCN(CC(=O)O)CCN(CC(=O)O)CC5)CC[C@]4(C)[C@H]3C[C@H](O)[C@]12C; DOTA = O=C(O)CN1CCN(CC(=O)O)CCN(CC(=O)*)CCN(CC(=O)O)CC1

Experiment: Ex vivo biodistribution screen of 111In-labeled DOTA-TATE derivatives in normal mice
Design: species or system athymic nude mice
Conditions: 2 h post-injection; for tissue uptake at 2 h: athymic nude, mouse, iv, 1 ug per mouse, total radioactivity; for Relative kidney retention, % rel. to DOTA-TATE: normal mice, 111In-DOTA-TATE set as 100%
Protocol: The panel of 10 compounds were then tested in an initial biodistribution screen of 9 organs assessed in non-tumor-bearing mice at specific timepoints following administration of the radioconjugates. Each agent was initially labeled with ^111In, a long-lived gamma-emitting radioisotope suitable for biodistribution studies, with high radiochemical yields and purity (Fig. S12). The compounds were then dosed (1.55 ± 0.12 MBq; 1 μg per mouse) in healthy athymic nude mice via intravenous (i.v.) injection in phosphate-buffered saline (PBS; vehicle). After 2 hours, the mice were sacrificed and ex vivo biodistribution analysis was performed (Fig. 2). […] This was an expected finding because this variant was designed to bind serum albumin.
Radiolabeling and In Vivo Evaluation of DOTA-TATE Variants:
Biodistribution, PET Quantification, and Dosimetry
Radiolabeling: To perform the initial biodistribution screen, radiolabeling of 10 compounds, including DOTA-TATE, was carried out using 111In (Cardinal Health, Arbutus, MD, USA), an affordable and readily available gamma -emitting radioisotope with a moderate half -life (2.83 days), which affords efficient DOTA radiolabeling and facilitates handling. 111InCl3 (28 – 36 MBq) was diluted with 0.4 M NH 4OAc buffer (pH 5.2) and combined with DOTA -TATE variants (20 μg). The solution was mixed well and then incubated at 90 °C for 30 min.
Radiolabeling efficiency and radiochemical purity were determined by radio -TLC and radio - HPLC. Radiochemical yield was >95% and the material was used without further purification.
The specific activity was 1.55 ± 0.12 TBq/g (41.9 ± 3.2 Ci/g). […]
Radio-instant thin-layer chromatography (radio-iTLC) was performed using silicic acid-impregnated glass microfiber paper strips (iTLC-SA, Varian, Lake Forest, CA, USA) as the stationary phase, and 50 mM EDTA in 100 mM NH4OAc (pH 5.5) as the mobile phase, analyzed with a radio-TLC scanner (AR-2000, Eckert-Ziegler, Wilmington, MA, USA). For Ac-225, equilibration was allowed for at least 12 hours before scanning the TLC strips to confirm initial scans. Radio-HPLC analysis (Agilent 1260 Infinity II, Agilent Technologies Inc., Santa Clara, CA, USA) was conducted on a TSK- Octadecyl-4PW column (5 µm, 4.6 mm ID × 15 cm, Tosoh
Co. Tokyo, Japan) with gradient elution using 0.1% trifluoroacetic acid in water as mobile phase A and 0.1% trifluoroacetic acid in acetonitrile as Mobile phase B. The elution sequence was 0-5 […]
PET imaging and biodistribution: For initial biodistribution screen studies, normal mice were administered 1.4 – 1.8 MBq (1 μg) of 111In-DOTA-TATE variants via tail vein injection and biodistribution studies were conducted at 2 hours post -injection (n = 2 – 4 per cohort).
For studies involving three variants (DOTA -TATE, DOTA-MVK(ε)-TATE, and DOTA-β-Gal-TATE), AR42J cells (5 × 10^6 cells per mouse) were subcutaneously inoculated into the right shoulder of the mice. Tumors were allowed to grow for 3 weeks, reaching a volume of 100 –200 mm³ before being used in subsequent experiments. For biodistribution or PET imaging studies, mice bearing subcutaneous AR42J tumors were administered 1.4 – 1.8 MBq (1 μg) of 111In-labeled DOTA-TATE variants or 2.7 – 4.9 MBq (1 μg) of 86Y-labeled DOTA-TATE variants via tail vein injection. Biodistribution studies with 111In-labeled DOTA -TATE variants were performed 1 hour post -injection (n = 3 per cohort), while studies with 86Y-labeled DOTA-TATE variants were conducted at 1, 4, and 24 hours post -injection (n = 3 per cohort). Mice were euthanized by CO2 asphyxiation, and 10 tissues, including tumors, were collected. All samples were weighed and counted on a gamma counter (2480 Wizard 3, Perkin Elmer Inc., Waltham, MA, USA). Results are presented as percentage of injected activity per gram (%IA/g) and mean values ± standard deviations.
PET imaging to assess the uptake of three 86Y-labeled DOTA-TATE variants (2.7 – 4.9 MBq, 1 […]

[1] = blood, normal athymic nude mice, i.v. 1 μg (1.4–1.8 MBq), ex vivo gamma counting, mean, n = 2–4, read-out: Blood uptake
[2] = kidney, normal athymic nude mice, i.v. 1 μg, ex vivo, mean (± SD), n = 2–4, read-out: Kidney uptake
[3] = femur, normal athymic nude mice, i.v. 1 μg, ex vivo, mean, n = 2–4, read-out: Femur uptake
[4] = heart, normal athymic nude mice, i.v. 1 μg, ex vivo, mean, n = 2–4, read-out: Heart uptake
[5] = intestine, normal athymic nude mice, i.v. 1 μg, ex vivo, mean, n = 2–4, read-out: Intestine uptake
[6] = liver, normal athymic nude mice, i.v. 1 μg, ex vivo, mean, n = 2–4, read-out: Liver uptake
[7] = lung, normal athymic nude mice, i.v. 1 μg, ex vivo, mean, n = 2–4, read-out: Lung uptake
[8] = muscle, normal athymic nude mice, i.v. 1 μg, ex vivo, mean, n = 2–4, read-out: Muscle uptake
[9] = spleen, normal athymic nude mice, i.v. 1 μg, ex vivo, mean, n = 2–4, read-out: Spleen uptake

Structure (SMILES)	tissue uptake at 2 h [1] [%ID/g]	tissue uptake at 2 h [2] [%ID/g]	tissue uptake at 2 h [3] [%ID/g]	tissue uptake at 2 h [4] [%ID/g]	tissue uptake at 2 h [5] [%ID/g]	tissue uptake at 2 h [6] [%ID/g]	tissue uptake at 2 h [7] [%ID/g]	tissue uptake at 2 h [8] [%ID/g]	tissue uptake at 2 h [9] [%ID/g]	Relative kidney retention, % rel. to DOTA-TATE [%]	also measured
C[C@H](CCC(=O)NCC(=O)N[C@H](Cc1ccccc1)C(=O)N[C@H]1CSSC[C@@H](C(=O)N[C@H](C(=O)O)[C@@H](C)O)NC(=O)[C@H]([C@@H](C)O)NC(=O)[C@H](CCCCN)NC(=O)[C@@H](Cc2c[nH]c3ccccc23)NC(=O)[C@H](Cc2ccc(O)cc2)NC1=O)[C@H]1CC[C@H]2[C@@H]3[C@H](O)C[C@@H]4C[C@@H](NC(=O)CNC(=O)CN5CCN(CC(=O)O)CCN(CC(=O)O)CCN(CC(=O)O)CC5)CC[C@]4(C)[C@H]3C[C@H](O)[C@]12C [DOTA-G-Chol-G-TATE] (X1-G[dF]CY[dW]KTCT-OH; disulfide 3-8)	1.7	9.6	–	–	–	–	–	–	–	–	–
C[C@@H](O)[C@H](NC(=O)[C@@H]1CSSC[C@H](NC(=O)[C@@H](Cc2ccccc2)NC(=O)CNC(=O)[C@H](CC(=O)O)NC(=O)[C@H](CC(=O)O)NC(=O)[C@H](CC(=O)O)NC(=O)CNC(=O)CN2CCN(CC(=O)O)CCN(CC(=O)O)CCN(CC(=O)O)CC2)C(=O)N[C@@H](Cc2ccc(O)cc2)C(=O)N[C@H](Cc2c[nH]c3ccccc23)C(=O)N[C@@H](CCCCN)C(=O)N[C@@H]([C@@H](C)O)C(=O)N1)C(=O)O [DOTA-GDDDG-TATE] ({DOTA}-GDDDG[dF]CY[dW]KTCT-OH; disulfide 7-12)	–	13	–	–	–	–	–	–	–	–	–
CSCC[C@H](NC(=O)CN1CCN(CC(=O)O)CCN(CC(=O)O)CCN(CC(=O)O)CC1)C(=O)N[C@H](C(=O)N[C@@H](CCCCNC(=O)CCCC(=O)N[C@H](Cc1ccccc1)C(=O)N[C@H]1CSSC[C@@H](C(=O)N[C@H](C(=O)O)[C@@H](C)O)NC(=O)[C@H]([C@@H](C)O)NC(=O)[C@H](CCCCN)NC(=O)[C@@H](Cc2c[nH]c3ccccc23)NC(=O)[C@H](Cc2ccc(O)cc2)NC1=O)C(=O)O)C(C)C [DOTA-MVK(ε)-TATE]	–	4	–	–	–	–	–	–	–	–	–
CSCC[C@H](NC(=O)CN1CCN(CC(=O)O)CCN(CC(=O)O)CCN(CC(=O)O)CC1)C(=O)N[C@H](C(=O)N[C@@H](CCCCN)C(=O)N[C@H](Cc1ccccc1)C(=O)N[C@H]1CSSC[C@@H](C(=O)N[C@H](C(=O)O)[C@@H](C)O)NC(=O)[C@H]([C@@H](C)O)NC(=O)[C@H](CCCCN)NC(=O)[C@@H](Cc2c[nH]c3ccccc23)NC(=O)[C@H](Cc2ccc(O)cc2)NC1=O)C(C)C [DOTA-MVK-TATE] ({DOTA}-MVK[dF]CY[dW]KTCT-OH; disulfide 5-10)	–	76	–	–	–	–	–	–	–	–	–
C[C@@H](O)[C@H](NC(=O)[C@@H]1CSSC[C@H](NC(=O)[C@@H](Cc2ccccc2)NC(=O)CN2CCN(CC(=O)O)CCN(CC(=O)O)CCN(CC(=O)O)CC2)C(=O)N[C@@H](Cc2ccc(O)cc2)C(=O)N[C@H](Cc2c[nH]c3ccccc23)C(=O)N[C@@H](CCCCN)C(=O)N[C@@H]([C@@H](C)O)C(=O)N1)C(=O)O [DOTA-TATE, reference compound]	–	6.1	–	–	–	–	–	–	–	–	–
C[C@@H](O)[C@H](NC(=O)[C@@H]1CSSC[C@H](NC(=O)[C@@H](Cc2ccccc2)NC(=O)CCCC(=O)Nc2cc(COC(=O)N(C)CCNC(=O)CN3CCN(CC(=O)O)CCN(CC(=O)O)CCN(CC(=O)O)CC3)ccc2O[C@@H]2O[C@H](CO)[C@H](O)[C@H](O)[C@H]2O)C(=O)N[C@@H](Cc2ccc(O)cc2)C(=O)N[C@H](Cc2c[nH]c3ccccc23)C(=O)N[C@@H](CCCCN)C(=O)N[C@@H]([C@@H](C)O)C(=O)N1)C(=O)O [DOTA-β-Gal-TATE]	–	–	–	–	–	–	–	–	–	–	tissue uptake at 2 h (in vivo, normal athymic nude mice, i.v. 1 μg, ex vivo, mean (± SD), n = 2–4, read-out: Kidney uptake): 4.1 %ID/g
C[C@H](CCC(=O)NCC(=O)N[C@H](Cc1ccccc1)C(=O)N[C@H]1CSSC[C@@H](C(=O)N[C@H](C(=O)O)[C@@H](C)O)NC(=O)[C@H]([C@@H](C)O)NC(=O)[C@H](CCCCN)NC(=O)[C@@H](Cc2c[nH]c3ccccc23)NC(=O)[C@H](Cc2ccc(O)cc2)NC1=O)[C@H]1CC[C@H]2[C@@H]3[C@H](O)C[C@@H]4C[C@@H](NC(=O)CNC(=O)CN5CCN(CC(=O)O)CCN(CC(=O)O)CCN(CC(=O)O)CC5)CC[C@]4(C)[C@H]3C[C@H](O)[C@]12C [^111In-DOTA-Chol-TATE, metal not drawn] (X1-G[dF]CY[dW]KTCT-OH; disulfide 3-8)	–	–	0.36	0.55	0.83	1.32	1.86	0.15	0.48	159	–
C[C@@H](O)[C@H](NC(=O)[C@@H]1CSSC[C@H](NC(=O)[C@@H](Cc2ccccc2)NC(=O)CNC(=O)[C@H](CC(=O)O)NC(=O)[C@H](CC(=O)O)NC(=O)[C@H](CC(=O)O)NC(=O)CNC(=O)CN2CCN(CC(=O)O)CCN(CC(=O)O)CCN(CC(=O)O)CC2)C(=O)N[C@@H](Cc2ccc(O)cc2)C(=O)N[C@H](Cc2c[nH]c3ccccc23)C(=O)N[C@@H](CCCCN)C(=O)N[C@@H]([C@@H](C)O)C(=O)N1)C(=O)O [^111In-DOTA-GDDDG-TATE, metal not drawn] ({DOTA}-GDDDG[dF]CY[dW]KTCT-OH; disulfide 7-12)	0.05	–	0.07	0.04	0.11	0.07	0.25	0.02	0.05	222	Kidney uptake (normal athymic nude mice, i.v. 1 μg, ex vivo, mean (± SD), n = 2–4): 13.45 %IA/g
C[C@@H](O)[C@H](NC(=O)[C@@H]1CSSC[C@H](NC(=O)[C@@H](Cc2ccccc2)NC(=O)[C@@H](Cc2ccc(O)cc2)NC(=O)CNC(=O)CN2CCN(CC(=O)O)CCN(CC(=O)O)CCN(CC(=O)O)CC2)C(=O)N[C@@H](Cc2ccc(O)cc2)C(=O)N[C@H](Cc2c[nH]c3ccccc23)C(=O)N[C@@H](CCCCN)C(=O)N[C@@H]([C@@H](C)O)C(=O)N1)C(=O)O [^111In-DOTA-GY*-TATE, metal not drawn] ({DOTA}-G[dY][dF]CY[dW]KTCT-OH; disulfide 4-9)	0.06	–	0.1	0.06	0.63	0.17	1.17	0.02	0.16	865	–
